In paper PMC9251544:

Biological target: 3×HA-xtMc1r (Xenopus tropicalis melanocortin 1 receptor) (Xenopus tropicalis)

Substance | EC50 of ACTH in the cAMP luciferase reporter assay (pCRE-luc, HEK293T), xtMc1r:xtMrap1 plasmid ratios 1:0 to 1:6; EC50 from 1.171 × 10^−9 M (1:3) to 7.006 × 10^−9 M (1:0) | EC50 of ACTH in the cAMP luciferase reporter assay (pCRE-luc, HEK293T), xtMc1r:xtMrap2 plasmid ratios 1:0 to 1:6; EC50 from 1.513 × 10^−9 M (1:6) to 7.150 × 10^−9 M (1:0) | EC50 of α-MSH in the cAMP luciferase reporter assay (pCRE-luc, HEK293T), xtMc1r:xtMrap1 plasmid ratios 1:0 to 1:6; EC50 from 6.906×10^−10 M (1:6) to 2.806 × 10^−9 M (1:0) | EC50 of α-MSH in the cAMP luciferase reporter assay (pCRE-luc, HEK293T), xtMc1r:xtMrap2 plasmid ratios 1:0 to 1:6; EC50 from 7.550 × 10^−10 M (1:3) to 2.036 × 10^−9 M (1:0)
ACTH peptide | 7.01e-09 M | 7.15e-09 M |  | 
alpha melanocyte-stimulating hormone (α-MSH) peptide |  |  | 2.81e-09 M | 2.04e-09 M
